Test results from article PMC4027190.

Assay: western blot (and ELISA for N38S) of culture media
Settings: glycan lost; control: wild type

B1: matrix metalloproteinase-9 (MMP-9): mS38 (protein)
parent chain: MSLWQPLVLVLLVLGCCFAAPRQRQSTLVLFPGDLRTNLTDRQLAEEYLYRYGYTRVAEMRGESKSLGPALLLLQKQLSLPETGELDSATLKAMRTPRCGVPDLGRFQTFEGDLKWHHHNITYWIQNYSEDLPRAVIDDAFARAFALWSAVTPLTFTRVYSRDADIVIQFGVAEHGDGYPFDGKDGLLAHAFPPGPGIQGDAHFDDDELWSLGKGVVVPTRFGNADGAACHFPFIFEGRSYSACTTDGRSDGLPWCSTTANYDTDDRFGFCPSERLYTQDGNADGKPCQFPFIFQGQSYSACTTDGRSDGYRWCATTANYDRDKLFGFCPTRADSTVMGGNSAGELCVFPFTFLGKEYSTCTSEGRGDGRLWCATTSNFDSDKKWGFCPDQGYSLFLVAAHEFGHALGLDHSSVPEALMYPMYRFTEGPPLHKDDVNGIRHLYGPRPEPEPRPPTTTTPQPTAPPTVCPTGPPTVHPSERPTAGPTGPPSAGPTGPPTAGPSTATTVPLSPVDDACNVNIFDAIAEIGNQLYLFKDGKYWRFSEGRGSRPQGPFLIADKWPALPRKLDSVFEERLSKKLFFFSGRQVWVYTGASVLGPRRLDKLGLGADVAQVTGALRSGRGKMLLFSGRRLWRFDVKAQMVDPRSASEVDRMFPGVPLDTHDVFQYREKAYFCQDRFYWRVSSRSELNQVDQVGYVTYDILQCPED
- expression_or_secretion: no change
